Experimental data taken from patent US20190194718, “GENERATION OF TAGGED DNA FRAGMENTS” (QIAGEN GMBH, published 2019).

Target: BPHIN 1 (wild-type HIV-1 integrase) (Human immunodeficiency virus 1, UniProt P04585 P04585:1148-1435)
Assay: pGL2 fragments 150-500 bp; 5 mM MnCl2, 37 C
Details: tags: BioProducts MD, LLC; chain copies: 4; partially double-stranded

B1: IN adaptor 7 (dsDNA)
DNA 1: AATGATACGGCGACCACCGAGATCTACACTCTTTCCCTACACGACGCTCTTCCGATCTAGCAGT
DNA 2: ACTGCT
binding result: binds
